Source: patent US20240033291A1 (CELLENGENE, published 2024)

Target: human mesothelin protein (MSLN antigen, Acro Biosystems) (human, UniProt Q13421 37-622)
Test: ELISA, coated human mesothelin 1 ug/mL, purified scFv serially diluted, anti-StrepMAB HRP

Chain of human mesothelin protein (MSLN antigen, Acro Biosystems) (Q13421 37-630): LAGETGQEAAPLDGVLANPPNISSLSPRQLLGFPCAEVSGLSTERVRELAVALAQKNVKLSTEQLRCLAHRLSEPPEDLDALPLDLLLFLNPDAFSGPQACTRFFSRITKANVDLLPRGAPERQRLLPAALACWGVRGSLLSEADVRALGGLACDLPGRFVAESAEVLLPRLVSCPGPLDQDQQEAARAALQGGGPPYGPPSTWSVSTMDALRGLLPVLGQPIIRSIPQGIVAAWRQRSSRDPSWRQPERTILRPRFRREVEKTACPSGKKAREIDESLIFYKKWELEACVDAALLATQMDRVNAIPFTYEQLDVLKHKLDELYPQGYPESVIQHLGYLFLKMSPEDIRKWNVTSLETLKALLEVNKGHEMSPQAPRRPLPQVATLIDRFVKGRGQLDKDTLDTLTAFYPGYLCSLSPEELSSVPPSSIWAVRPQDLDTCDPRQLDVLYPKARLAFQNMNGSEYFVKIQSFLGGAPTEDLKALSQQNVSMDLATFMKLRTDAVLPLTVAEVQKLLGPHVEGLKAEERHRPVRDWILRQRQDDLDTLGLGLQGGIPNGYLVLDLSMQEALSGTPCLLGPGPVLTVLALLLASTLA

- EC50: 145 nM
B1: anti-MSLN-scFv antibody MSLN3 (purified scFv) (scFv)
chain: EVQLVESGGGLVQPGGSLRLSCAASGFTFSDYAMSWVRQAPGKGLEWVSAISSSGGTTYYADSVKGRFTISRDNSKNTLYLQMNSLRAEDTAVYYCAKEEEGEWREYFDVWGQGTLVTVSSGGGGSGGGGSGGGGSDIQMTQSPSSLSASVGDRVTITCRASQSISSYLNWYQQKPGKAPKLLIYATSTLQSGVPSRFSGSGSGTDFTLTISSLQPEDFATYYCQQSYTFPYTFGQGTKVEIKAST
